Measurements reported in publication doi:10.1101/2024.09.13.612636 (bioRxiv, 2024).
“And” between values parts separate entries of the source, which are not always exact repeats. Identical values can stand only once.

B1: LdPEX19-His6 (C-terminally His6-tagged full-length L. donovani PEX19, pET21b) (natural protein)
chain: MSDDDLDALLDEAMDMVDEQERKHEEEVRVRDAKLEDDLQKALDEASGTAGGDADMMKMLMSMLGGDSADDASLDSFKKSVMTMVSSLEGEENLGEEDKANLLRVKELMRVMEEEDIDKANDLLEQMKQEGKLPDCNNVGDAEIDEASRRCMEMLQQLSSATQVGHLDPAATPGAASSSSAAPPAAPAGDGAEIPSEVGRATEAMASALISTLADPQFVEPIKLMRDSYGPYMDAHGSELSHEDCERYERQRAKAQEICDLLQNPISGAEDPRLIQLLELMNKYSELGDPPRNLVKYAPKNRKGVEECQ

What was measured:
[1] = molecular target: GST-LdPEX3Δ1-42 (L. donovani PEX3 without the N-terminal predicted transmembrane domain, GST-tagged) (Leishmania donovani); experiment: AlphaScreen or HTRF
[2] = molecular target: T1, GST-LdPEX3Δ1-42 (L. donovani PEX3 without the N-terminal predicted transmembrane domain, GST-tagged) (Leishmania donovani, UniProt A0A3Q8IW98 43-526); experiment: ELISA
T1 sequence: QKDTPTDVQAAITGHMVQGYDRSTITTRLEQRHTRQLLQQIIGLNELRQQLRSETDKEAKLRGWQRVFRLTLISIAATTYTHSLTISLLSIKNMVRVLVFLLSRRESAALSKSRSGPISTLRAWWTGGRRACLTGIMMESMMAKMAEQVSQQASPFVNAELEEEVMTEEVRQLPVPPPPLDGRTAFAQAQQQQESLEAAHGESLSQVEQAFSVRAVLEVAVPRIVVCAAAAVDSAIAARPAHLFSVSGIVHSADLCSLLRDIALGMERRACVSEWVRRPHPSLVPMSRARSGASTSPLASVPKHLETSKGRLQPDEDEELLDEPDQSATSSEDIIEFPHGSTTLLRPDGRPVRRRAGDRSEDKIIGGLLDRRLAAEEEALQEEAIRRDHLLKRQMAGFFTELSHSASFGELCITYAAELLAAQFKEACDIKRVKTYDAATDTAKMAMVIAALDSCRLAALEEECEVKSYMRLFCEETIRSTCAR

[3] = molecular target: T1, GST-LdPEX3Δ1-42 (L. donovani PEX3 …); experiment: AlphaScreen or HTRF

Row | Molecule | Kd [1] | Kd [2] | Kd [3]
1 | Tag-free LdPEX19 (from LdPEX19-T-His6 by thrombin cleavage) (natural protein) | 11.9 nM |  | 
2 | B1 |  | 10.6 nM and 10.5 nM | 10.4 ± 2.57 nM
